Target: recombinant Ena3A (major subunit of L-ENA fibers) (Bacillus paranthracis NVH 0075-95)
Test: cryo-EM structure

recombinant Ena3A (major subunit of L-ENA fibers) (natural protein)
stoichiometry N: 7

From doi:10.1101/2023.10.23.563578
